Source: US20210253698A1 (AFFIMED, published 2021)

How the values were obtained:
[1] = target: human CD16A-158V and cynomolgus CD16 (value not tied to one of the two); experiment: SPR, 50 nM analyte, receptor captured, 3 h dissociation
[2] = target: Human CD16A-158V ECD-monomeric Fc fusion antigen (human) (UniProt P08637); experiment: ELISA, CD16 antigen coated at 0.5 µg/mL (10 nM), without competition
[3] = target: human CD16A (FcγRIIIA) on primary human NK cells (human) (UniProt P08637); experiment: flow cytometry on primary human NK cells, 37 C, with 10 mg/mL polyclonal human IgG
Sequence of human CD16A (FcγRIIIA) on primary human NK cells (human) (P08637 17-254): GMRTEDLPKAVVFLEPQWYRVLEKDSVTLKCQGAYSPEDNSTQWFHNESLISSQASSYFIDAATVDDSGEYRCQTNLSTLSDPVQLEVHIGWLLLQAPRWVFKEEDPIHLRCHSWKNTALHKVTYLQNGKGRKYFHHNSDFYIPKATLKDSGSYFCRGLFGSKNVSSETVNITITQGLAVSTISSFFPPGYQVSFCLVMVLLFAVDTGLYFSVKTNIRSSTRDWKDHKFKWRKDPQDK

[4] = target: human CD16A (FcγRIIIA) on primary human NK cells (human) (UniProt P08637); experiment: flow cytometry on primary human NK cells, 37 C, buffer
[5] = target: Cynomolgus CD16A ECD-monomeric Fc fusion antigen (cynomolgus) (UniProt Q8SPW2); experiment: ELISA, antigen coated at 1.5 µg/mL (32 nM), scFv titrated
Sequence of Cynomolgus CD16A ECD-monomeric Fc fusion antigen (cynomolgus) (Q8SPW2 17-208): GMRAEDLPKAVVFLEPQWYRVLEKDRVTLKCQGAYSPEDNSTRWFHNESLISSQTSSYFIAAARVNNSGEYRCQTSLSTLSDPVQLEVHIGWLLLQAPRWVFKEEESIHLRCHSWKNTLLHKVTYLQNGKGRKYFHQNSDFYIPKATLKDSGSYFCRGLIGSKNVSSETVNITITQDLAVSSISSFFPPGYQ

[6] = target: Human CD16A-158V ECD-monomeric Fc fusion antigen (human) (UniProt P08637); experiment: as above
[7] = target: Human CD16A-158F ECD-monomeric Fc fusion antigen (human) (UniProt P08637); experiment: as above
Sequence of Human CD16A-158F ECD-monomeric Fc fusion antigen (human) (P08637 17-208): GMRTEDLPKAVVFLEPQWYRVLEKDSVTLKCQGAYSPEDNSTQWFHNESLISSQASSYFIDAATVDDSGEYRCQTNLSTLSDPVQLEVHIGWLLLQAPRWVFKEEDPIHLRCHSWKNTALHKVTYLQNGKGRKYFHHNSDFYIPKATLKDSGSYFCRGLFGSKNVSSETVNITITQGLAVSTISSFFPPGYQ

[8] = target: Human CD16A-158V ECD-monomeric Fc fusion antigen (human) (UniProt P08637); experiment: SPR (Biacore T200), receptor-mono-Fc captured, 1:1 model
[9] = target: Human CD16A-158V ECD-monomeric Fc fusion antigen (human) (UniProt P08637); experiment: ELISA, CD16 antigen coated at 0.5 µg/mL (10 nM), competitor 8-10 nM 3G8 IgG
[10] = target: T1, B-cell maturation antigen (BCMA) (human, UniProt Q02223 1-54, limits assumed); experiment: flow cytometry on Raji cells (low BCMA), APC-A histogram, % of Max
T1 construct: also called CD269; TNFRSF17
T1 sequence (looked up): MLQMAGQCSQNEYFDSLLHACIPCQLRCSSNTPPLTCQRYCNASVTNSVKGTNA

[11] = target: human CD16A (SEQ ID NO:48) (human, UniProt P08637 17-208); experiment: SPR (Biacore T200), purified scFv, monovalent binding affinity; human CD16A
Sequence of human CD16A (SEQ ID NO:48) (P08637 17-208 limits assumed): as the sequence (P08637 17-208) above

[12] = target: cynomolgus CD16A (SEQ ID NO:49) (cynomolgus, UniProt Q8SPW2 17-208); experiment: SPR (Biacore T200), purified scFv, monovalent binding affinity; cynomolgus CD16A
Sequence of cynomolgus CD16A (SEQ ID NO:49) (Q8SPW2 17-208 limits assumed): as the sequence (Q8SPW2 17-208) above

[13] = target: T2, biotinylated, recombinant human CD16A(48R-158V) fused to human IgG1 Fc portion (human, UniProt P08637 17-208, limits assumed, biotinylated); experiment: ELISA, antibody coated, soluble biotinylated CD16A-Fc titrated
T2 construct: also called soluble CD16A antigen; recombinant human CD16A soluble antigen; not shown: human IgG1 Fc portion
T2 sequence (P08637 17-208 L66R/F176V limits assumed): as the sequence (P08637 17-208) above, with L50R, F160V counted along it

[14] = target: T3, Human CD16A-158V ECD-monomeric Fc fusion antigen (human, UniProt P08637 17-208); experiment: SPR multi-cycle kinetics (Biacore T200), 4-fold dilution series over captured human CD16A-158V
T3 construct: extracellular domain; also called CD16A-158V ECD-Fc fusion antigen; biotinylated mono-Fc(silent)-Avi-tagged receptor; not shown: monomeric Fc (Ying et al. 2012) fusion partner, Avi tag in SPR
T3 sequence (P08637 17-208 F176V): as the sequence (P08637 17-208) above, with F160V counted along it
Description: (§1) IgGs and scFvs were prepared in HBS-P+buffer at indicated concentration series and are injected to reference surfaces (Fc 1, Fc 3) and receptor captured surface (Fc 2, Fc 4) at a flow rate of 40 μL/min (association time 180 s, dissociation time 300 s). […] Data were referenced by subtraction of signals from reference surfaces (Fc 2-1, Fc 4-3) and zero concentration (buffer control) signals. Kinetic evaluation was performed by fitting data to a 1:1 binding model (Rmax and RI locally fitted) using Biacore T200 Evaluation Software (v3.1).

[15] = target: T4, Human CD16A-158F ECD-monomeric Fc fusion antigen (human, UniProt P08637 17-208, biotinylated in SPR); experiment: SPR (Biacore T200), receptor-mono-Fc captured, 1:1 model
T4 construct: extracellular domain; not shown: monomeric Fc (Ying et al. 2012) fusion partner, Avi tag in SPR
T4 sequence (P08637 17-208): as the sequence (P08637 17-208) above
Description: as §1, with “(v3.1). […] Referenced curves were normalized to each curves maximum and overlaid. For investigation of receptor retention via qualitative dissociation phase comparison of monovalent and bivalent CD16A-binding antibodies or ligands, biotinylated mono-Fc(silent)-Avi-tagged receptors were prepared in HBS-P+and captured (human CD16A-158V approx. 160RU, cynomolgus CD16 approx. 320 RU) in flow cells Fc 2 and […].” for “(v3.1).”

CD16A = target: T5, CD16A (human, UniProt P08637 17-208); experiment: not stated; binding to CD16A
T5 construct: also called CD16A antigen; FcγRIIIA
T5 sequence (P08637 17-208 limits assumed): as the sequence (P08637 17-208) above

[16] = target: T6, human CD16A (FcγRIIIA) on primary human NK cells (human, UniProt P08637 17-254); experiment: flow cytometry on freshly prepared human NK cells, DyLight650-labelled antibody, in the presence of 10 mg/mL SCIG (Hizentra), delta gMFI
T6 construct: whole, on cells
T6 sequence (P08637 17-254): as the sequence (P08637 17-254) above
Description: Fresh prepared human NK cells were pre-incubated for 1-hours at 37 C with and without 10 mg/mL of SCIG (Hizentra), then stained with DyLight650 labeled anti-AFM26/CD16a at indicted concentrations. […] In FIGS. 40C and 40D, human NK cells were isolated from a healthy human blood donor. NK (FIG. 40D) and MM.1S cells (FIG. 40C) were preincubated separately in 50% human autologous serum for 2 hours prior to assay setup. NK cells were co-cultured with MM.15 tumor cell line at an approximate E:T ration of 5, and exposed to 10-fold serial diluted test articles from 0.1-100nM for approximately 20 hours at 37 C with 5% CO₂. Antibody staining with CD138 and CD56 followed by FACS were used to monitor cytotoxicity of MM.15 target cells and NK survival. Data were analyzed with the software programs FlowJo and GraphPad Prism 6.

[17] = target: T1, B-cell maturation antigen (BCMA); experiment: not stated; binding to BCMA

Sequence of Human CD16A-158V ECD-monomeric Fc fusion antigen (human) (P08637 17-208 F176V): as the sequence (P08637 17-208) above, with F160V counted along it

IgG1 Fc (enhanced, S239D/I332E) (from UniProt P01857 1-330) (antibody)
percent remaining on the receptor after 3 h of dissociation [1]: 10%

scFv 3G8
EC50 [2]: 0.9 nM
Kd [3]: 64.6 nM
Kd [4]: 3.8 nM
EC50 [5]: 0.87 nM
EC50 [6]: 0.33 nM
EC50 [7]: 0.58 nM
Kd [8]: 8.6 nM
EC50 [9]: 19.7 nM

B1: CD16A/BCMA antibody III (bispecific antibody)
chain 1: DKTHTCPPCPAPEFEGGPSVFLFPPKPKDTLMISRTPEVTCVVVAVSHEDPEVKFNWYVDGVEVHNAKTKPREEQYNSTYRVVSVLTVLHQDWLNGKEYKCKVSNKALPAPIEKTISKAKGQPREPQVYTLPPSREEMTKNQVSLTCLVKGFYPSDIAVEWESNGQPENNYKTTPPVLDSDGSFFLTSKLTVDKSRWQQGNVFSCSVMHEALHNHYTQKSLSLSPGGGGGSGGGGSSYVLTQPSSVSVAPGQTATISCGGHNIGSKNVHWYQQRPGQSPVLVIYQDNKRPSGIPERFSGSNSGNTATLTISGTQAMDEADYYCQVWDNYSVLFGGGTKLTVLGGSGGSQVQLVQSGAEVKKPGESLKVSCKASGYTFTSYYMHWVRQAPGQGLEWMGAIEPMYGSTSYAQKFQGRVTMTRDTSTSTVYMELSSLRSEDTAVYYCARGSAYYYDFADYWGQGTLVTVSSGGSGGSGGSGGSGGSGGSSYVLTQPSSVSVAPGQTATISCGGHNIGSKNVHWYQQRPGQSPVLVIYQDNKRPSGIPERFSGSNSGNTATLTISGTQAMDEADYYCQVWDNYSVLFGGGTKLTVLGGSGGSQVQLVQSGAEVKKPGESLKVSCKASGYTFTSYYMHWVRQAPGQGLEWMGAIEPMYGSTSYAQKFQGRVTMTRDTSTSTVYMELSSLRSEDTAVYYCARGSAYYYDFADYWGQGTLVTVSSAAAGSHHHHHH
chain 2: EVQLLESGGGLVQPGGSLRLSCAASGFTFSNYDMAWVRQAPGKGLEWVSSISTRGDITSYRDSVKGRFTISRDNSKNTLYLQMNSLRAEDTAVYYCARQDYYTDYMGFAYWGQGTLVTVSSGGGGSGGGGSGGGGSAIQMTQSPSSLSASVGDRVTITCRASEDIYNGLAWYQQKPGKAPKLLIYGASSLQDGVPSRFSGSGSGTEFTLTISSLQPEDEATYYCAGPHKYPLTFGGGTKVEIKDKTHTCPPCPAPEFEGGPSVFLFPPKPKDTLMISRTPEVTCVVVAVSHEDPEVKFNWYVDGVEVHNAKTKPREEQYNSTYRVVSVLTVLHQDWLNGKEYKCKVSNKALPAPIEKTISKAKGQPREPQVYTLPPSREEMTKNQVSLYCLVKGFYPSDIAVEWESNGQPENNYKTTPPVLDSDGSFFLYSKLTVDKSRWQQGNVFSCSVMHEALHNHYTQKSLSLSPG
notes: also called KiH-scDb-Fc BCMA/CD16a
binding result [10]: binds

B2: anti-CD16A Fv of SEQ ID NOs:1 and 2 (scFv)
chain 1: QVQLVQSGAEVKKPGESLKVSCKASGYTFTSYYMHWVRQAPGQGLEWMGIINPSGGSTSYAQKFQGRVTMTRDTSTSTVYMELSSLRSEDTAVYYCARGSAYYYDFADYWGQGTLVTVSS
chain 2: SYVLTQPSSVSVAPGQTATISCGGHNIGSKNVHWYQQRPGQSPVLVIYQDNKRPSGIPERFSGSNSGNTATLTISGTQAMDEADYYCQVWDNYSVLFGGGTKLTVL
notes: Measured as purified scFv
Kd [11]: 40.5 nM
Kd [12]: 132 nM

B3: scDb-Tribody_01 (other)
VH: B2 chain 1
VL: B2 chain 2
notes: Trispecific; LSIV21 scDb VL-VL-VH-VH; HSA(N1) Fab, EGFR; no hinge; no Fc; Chains: anti-CD16A Fv only
EC50 [13]: 0.65 nM

B4: IgG1 Fc (silenced, L234F/L235E/D265A) (antibody)
heavy: ASTKGPSVFPLAPSSKSTSGGTAALGCLVKDYFPEPVTVSWNSGALTSGVHTFPAVLQSSGLYSLSSVVTVPSSSLGTQTYICNVNHKPSNTKVDKKVEPKSCDKTHTCPPCPAPEFEGGPSVFLFPPKPKDTLMISRTPEVTCVVVAVSHEDPEVKFNWYVDGVEVHNAKTKPREEQYNSTYRVVSVLTVLHQDWLNGKEYKCKVSNKALPAPIEKTISKAKGQPREPQVYTLPPSRDELTKNQVSLTCLVKGFYPSDIAVEWESNGQPENNYKTTPPVLDSDGSFFLYSKLTVDKSRWQQGNVFSCSVMHEALHNHYTQKSLSLSPGK
notes: also called human IgG1 Fc-silenced
binding result [14]: no binding
Kd [15]: 34700 nM
koff [15]: 0.71 s⁻¹
kon [15]: 20400 M⁻¹ s⁻¹

B5: CD16A/BCMA antibody II (bispecific antibody)
TandAb polypeptide VH BCMA-VL CD16A-VH CD16A-VL BCMA: EVQLLESGGGLVQPGGSLRLSCAASGFTFSNYDMAWVRQAPGKGLEWVSSISTRGDITSYRDSVKGRFTISRDNSKNTLYLQMNSLRAEDTAVYYCARQDYYTDYMGFAYWGQGTLVTVSSGGSGGSGGSGGSSYVLTQPSSVSVAPGQTATISCGGHNIGSKNVHWYQQRPGQSPVLVIYQDNKRPSGIPERFSGSNSGNTATLTISGTQAMDEADYYCQVWDNYSVLFGGGTKLTVLGGSQVQLVQSGAEVKKPGESLKVSCKASGYTFTSYYMHWVRQAPGQGLEWMGAIEPMYGSTSYAQKFQGRVTMTRDTSTSTVYMELSSLRSEDTAVYYCARGSAYYYDFADYWGQGTLVTVSSGGSGGSGGSGGSAIQMTQSPSSLSASVGDRVTITCRASEDIYNGLAWYQQKPGKAPKLLIYGASSLQDGVPSRFSGSGSGTEFTLTISSLQPEDEATYYCAGPHKYPLTFGGGTKVEIK
notes: also called Fc-less TandAb BCMA/CD16A
binding result [10]: binds

B6: CD16A/BCMA antibody I (bispecific antibody, human IgG1, kappa)
heavy: EVQLLESGGGLVQPGGSLRLSCAASGFTFSNYDMAWVRQAPGKGLEWVSSISTRGDITSYRDSVKGRFTISRDNSKNTLYLQMNSLRAEDTAVYYCARQDYYTDYMGFAYWGQGTLVTVSSASTKGPSVFPLAPSSKSTSGGTAALGCLVKDYFPEPVTVSWNSGALTSGVHTFPAVLQSSGLYSLSSVVTVPSSSLGTQTYICNVNHKPSNTKVDKKVEPKSCDKTHTCPPCPAPEFEGGPSVFLFPPKPKDTLMISRTPEVTCVVVAVSHEDPEVKFNWYVDGVEVHNAKTKPREEQYNSTYRVVSVLTVLHQDWLNGKEYKCKVSNKALPAPIEKTISKAKGQPREPQVYTLPPSREEMTKNQVSLTCLVKGFYPSDIAVEWESNGQPENNYKTTPPVLDSDGSFFLYSKLTVDKSRWQQGNVFSCSVMHEALHNHYTQKSLSLSPGGGGGSGGGGSGGGGSGGGGSGGGGSGGGGSSYVLTQPSSVSVAPGQTATISCGGHNIGSKNVHWYQQRPGQSPVLVIYQDNKRPSGIPERFSGSNSGNTATLTISGTQAMDEADYYCQVWDNYSVLFGGGTKLTVLGGSGGSGGSGGSGGSGGSGGSQVQLVQSGAEVKKPGESLKVSCKASGYTFTSYYMHWVRQAPGQGLEWMGAIEPMYGSTSYAQKFQGRVTMTRDTSTSTVYMELSSLRSEDTAVYYCARGSAYYYDFADYWGQGTLVTVSS
light: AIQMTQSPSSLSASVGDRVTITCRASEDIYNGLAWYQQKPGKAPKLLIYGASSLQDGVPSRFSGSGSGTEFTLTISSLQPEDEATYYCAGPHKYPLTFGGGTKVEIKRTVAAPSVFIFPPSDEQLKSGTASVVCLLNNFYPREAKVQWKVDNALQSGNSQESVTEQDSKDSTYSLSSTLTLSKADYEKHKVYACEVTHQGLSSPVTKSFNRGEC
notes: also called scFv-IgAb I BCMA/CD16a; BCMA/CD16A antibody I
Kd (CD16A): ~16 nM
EC50 (read off the curve) [16]: ~40 nM
Kd [17]: ~2 nM
